Laboratory results as given in the supplement of paper PMC10567573.

B1: ZNF511 (parent)
chain: AAPFRFVARPVRFPREHQFFEDGD

Variants of: B1
Assay: protein stability index of a GFP-peptide fusion (GPS, HEK-293T) (PSI 1-6); higher = more stable
Details: c terminus: a fixed tail appended
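Further: lentivirally expressed fusions sorted by FACS into six bins by GFP to DsRed ratio, PSI derived from sequencing read proportions per bin multiplied by bin number.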

First: F6W
Second: F6Y
The protein stability index of the first is higher: 3.41 for the first, 1.69 for the second.

First: F6V
Second: P14A
The protein stability index of the first is higher: 3.89 for the first, 2.16 for the second.

First: P14D
Second: P14V
The protein stability index of the first is higher: 2.26 for the first, 2.22 for the second.

First: P14K
Second: P14I
The protein stability index of the first is higher: 2.93 for the first, 2.33 for the second.

Compared with P14T, P14F is higher in protein stability index: 1.87 for the first, 2 for the second.

Going from P14L to P14M, the protein stability index rises from 1.84 to 2.17.

Compared with P14Q, P14H is lower in protein stability index: 2.15 for the first, 1.69 for the second.

First: P14S
Second: P14E
The protein stability index of the first is lower: 1.88 for the first, 2.45 for the second.

Compared with P14G, P14N is higher in protein stability index: 1.76 for the first, 2.1 for the second.

First: P14C
Second: P14W
The protein stability index of the first is higher: 2.02 for the first, 1.34 for the second.

Going from P14Y to P14R, the protein stability index rises from 1.8 to 2.51.

First: F13V
Second: F13R
The protein stability index of the first is higher: 3.13 for the first, 2.32 for the second.

Compared with F13G, F13P is higher in protein stability index: 1.74 for the first, 2.74 for the second.

Compared with F13S, F13E is higher in protein stability index: 1.86 for the first, 2.36 for the second.

Going from F13Q to F13L, the protein stability index rises from 2.1 to 2.49.

Going from F13N to F13K, the protein stability index rises from 1.95 to 2.17.

First: F13Y
Second: F13W
The protein stability index of the first is lower: 2.29 for the first, 2.33 for the second.

Going from F13A to F13D, the protein stability index falls from 2.25 to 2.1.

Going from F13H to F13T, the protein stability index falls from 2.66 to 2.37.

First: F13I
Second: F13M
The protein stability index of the first is lower: 2.48 for the first, 2.72 for the second.

Going from F13C to V7T, the protein stability index rises from 1.8 to 3.23.

Going from V7L to V7F, the protein stability index rises from 3.64 to 3.69.

Going from V7Y to V7W, the protein stability index falls from 3.78 to 3.67.

First: V7I
Second: V7A
The protein stability index of the first is lower: 2.53 for the first, 3.9 for the second.

Compared with V7D, V7K is lower in protein stability index: 3.73 for the first, 3.6 for the second.

Compared with V7H, V7C is higher in protein stability index: 2.04 for the first, 2.65 for the second.

Compared with V7E, V7R is lower in protein stability index: 4.61 for the first, 3.95 for the second.

Going from V7G to V7Q, the protein stability index rises from 3.74 to 3.78.

Going from V7S to V7P, the protein stability index rises from 3.76 to 4.46.

First: V7N
Second: V7M
The protein stability index of the first is lower: 3.28 for the first, 3.7 for the second.

Compared with R9K, R9I is lower in protein stability index: 1.95 for the first, 1.84 for the second.

Compared with R9S, R9M is lower in protein stability index: 2.2 for the first, 1.95 for the second.

Going from R9C to R9F, the protein stability index rises from 1.32 to 1.56.

Going from R9A to R9Q, the protein stability index rises from 2.41 to 3.03.

First: R9L
Second: R9H
The protein stability index of the first is higher: 1.94 for the first, 1.89 for the second.

Compared with R9P, R9G is lower in protein stability index: 3.54 for the first, 2.41 for the second.

Compared with R9W, R9E is higher in protein stability index: 1.41 for the first, 2.21 for the second.

Going from R9N to R9Y, the protein stability index rises from 1.38 to 1.84.

Going from R9V to R9T, the protein stability index falls from 2.14 to 1.83.

Compared with P10R, P10G is higher in protein stability index: 1.8 for the first, 1.87 for the second.

First: P10L
Second: P10V
The protein stability index of the first is lower: 1.75 for the first, 2.06 for the second.

First: P10D
Second: P10Q
The protein stability index of the first is lower: 2.07 for the first, 2.08 for the second.

First: P10S
Second: P10K
The protein stability index of the first is lower: 1.5 for the first, 2.77 for the second.

Compared with P10F, P10A is lower in protein stability index: 2.44 for the first, 1.96 for the second.

First: P10C
Second: P10T
The protein stability index of the first is higher: 2.36 for the first, 1.29 for the second.

Compared with P10Y, P10N is lower in protein stability index: 2.59 for the first, 1.88 for the second.

First: P10E
Second: P10H
The protein stability index of the first is lower: 1.81 for the first, 2.14 for the second.

Going from P10I to A8V, the protein stability index falls from 4.18 to 1.59.

Compared with A8P, A8Y is lower in protein stability index: 2.27 for the first, 2.19 for the second.

First: A8C
Second: A8M
The protein stability index of the first is lower: 1.96 for the first, 2.74 for the second.

First: A8N
Second: A8T
The protein stability index of the first is higher: 2.23 for the first, 1.88 for the second.

First: A8L
Second: A8D
The protein stability index of the first is higher: 2.15 for the first, 1.3 for the second.

Going from A8I to A8K, the protein stability index falls from 2.77 to 2.31.

Going from A8E to A8S, the protein stability index falls from 1.98 to 1.82.

First: A8F
Second: A8G
The protein stability index of the first is lower: 2.02 for the first, 2.29 for the second.

Going from A8Q to A8W, the protein stability index rises from 1.66 to 2.26.

Compared with A8H, R15G is lower in protein stability index: 2.58 for the first, 1.74 for the second.

Compared with R15T, R15P is higher in protein stability index: 2.57 for the first, 2.85 for the second.

Going from R15H to R15Q, the protein stability index rises from 1.84 to 2.51.

Compared with R15F, R15E is lower in protein stability index: 2.08 for the first, 2.06 for the second.

Going from R15M to R15D, the protein stability index falls from 1.89 to 1.72.

Going from R15N to R15I, the protein stability index rises from 1.62 to 1.98.

Going from R15K to R15A, the protein stability index falls from 2.2 to 1.94.

First: R15S
Second: R15L
The protein stability index of the first is lower: 2.48 for the first, 3.44 for the second.

Compared with R15C, V11G is lower in protein stability index: 2.03 for the first, 1.53 for the second.

Going from V11P to V11N, the protein stability index falls from 2.03 to 1.95.

First: V11C
Second: V11T
The protein stability index of the first is higher: 2.02 for the first, 1.94 for the second.

First: V11H
Second: V11R
The protein stability index of the first is higher: 2.04 for the first, 2 for the second.

First: V11E
Second: V11S
The protein stability index of the first is lower: 1.99 for the first, 2.34 for the second.

Going from V11D to V11W, the protein stability index falls from 2.14 to 1.78.

Going from V11A to V11Q, the protein stability index rises from 1.96 to 2.38.

First: V11F
Second: V11Y
The protein stability index of the first is higher: 1.99 for the first, 1.74 for the second.

Compared with V11M, V11L is lower in protein stability index: 2.06 for the first, 2.02 for the second.

Compared with V11K, V11I is higher in protein stability index: 1.75 for the first, 2.08 for the second.

First: R12M
Second: R12E
The protein stability index of the first is higher: 2.03 for the first, 1.97 for the second.

Going from R12H to R12C, the protein stability index falls from 2.18 to 1.62.

Going from R12W to R12A, the protein stability index falls from 1.9 to 1.48.

Compared with R12G, R12L is higher in protein stability index: 2.1 for the first, 2.13 for the second.

Going from R12Y to R12D, the protein stability index rises from 1.74 to 1.85.

Going from R12F to R12T, the protein stability index rises from 1.54 to 2.62.

Going from R12V to R12N, the protein stability index rises from 2.23 to 2.37.

Going from R12S to R12I, the protein stability index falls from 3.73 to 2.97.

Compared with R12Q, R12K is lower in protein stability index: 2.44 for the first, 2.29 for the second.

For R12P, the protein stability index was 2.22.
